In article PMC4323994:
Where no end group is shown, it is not given here.

Assays:
Assay in all cases: ELISA
[1] = target: HLA-DR molecule, DRB1*0101 (human)
[2] = target: HLA-DR molecule, DRB1*0701 (human)
[3] = target: HLA-DR molecule, DRB1*1501 (human)

Row | IC50 [1] | IC50 [2] | IC50 [3] | Binder
1 | < 2000 nM | < 2000 nM | 85.1 µM | GKQLYNVEATSYALLALLQLKDFD (also: amino and carboxyl ends blocked) [C3d_(223–246)]
2 | 5630 nM | 2450 nM | > 100 µM | QATFMVFQALAQYQKDAP (also: amino and carboxyl ends blocked) [C3d_(269–286)]
3 | 365 nM | – | – | GKQLYNVEATSYALL (also: amino and carboxyl ends blocked) [C3d_(223–237) wild type peptide (sequence overlapping the P28 peptide segment and C3d_(223–246))]
